Substrate in series [1]: O=[N+]([O-])c1ccc(OP(=O)(O)O)cc1
Substrate in series [2]: O=P(O)(O)Oc1ccc(-c2ccccc2)cc1

B1: Receptor-type tyrosine-protein phosphatase beta (Homo sapiens), P23467 (protein)
chain: MLSHGAGLALWITLSLLQTGLAEPERCNFTLAESKASSHSVSIQWRILGSPCNFSLIYSSDTLGAALCPTFRIDNTTYGCNLQDLQAGTIYNFRIISLDEERTVVLQTDPLPPARFGVSKEKTTSTSLHVWWTPSSGKVTSYEVQLFDENNQKIQGVQIQESTSWNEYTFFNLTAGSKYNIAITAVSGGKRSFSVYTNGSTVPSPVKDIGISTKANSLLISWSHGSGNVERYRLMLMDKGILVHGGVVDKHATSYAFHGLTPGYLYNLTVMTEAAGLQNYRWKLVRTAPMEVSNLKVTNDGSLTSLKVKWQRPPGNVDSYNITLSHKGTIKESRVLAPWITETHFKELVPGRLYQVTVSCVSGELSAQKMAVGRTFPDKVANLEANNNGRMRSLVVSWSPPAGDWEQYRILLFNDSVVLLNITVGKEETQYVMDDTGLVPGRQYEVEVIVESGNLKNSERCQGRTVPLAVLQLRVKHANETSLSIMWQTPVAEWEKYIISLADRDLLLIHKSLSKDAKEFTFTDLVPGRKYMATVTSISGDLKNSSSVKGRTVPAQVTDLHVANQGMTSSLFTNWTQAQGDVEFYQVLLIHENVVIKNESISSETSRYSFHSLKSGSLYSVVVTTVSGGISSRQVVVEGRTVPSSVSGVTVNNSGRNDYLSVSWLLAPGDVDNYEVTLSHDGKVVQSLVIAKSVRECSFSSLTPGRLYTVTITTRSGKYENHSFSQERTVPDKVQGVSVSNSARSDYLRVSWVHATGDFDHYEVTIKNKNNFIQTKSIPKSENECVFVQLVPGRLYSVTVTTKSGQYEANEQGNGRTIPEPVKDLTLRNRSTEDLHVTWSGANGDVDQYEIQLLFNDMKVFPPFHLVNTATEYRFTSLTPGRQYKILVLTISGDVQQSAFIEGFTVPSAVKNIHISPNGATDSLTVNWTPGGGDVDSYTVSAFRHSQKVDSQTIPKHVFEHTFHRLEAGEQYQIMIASVSGSLKNQINVVGRTVPASVQGVIADNAYSSYSLIVSWQKAAGVAERYDILLLTENGILLRNTSEPATTKQHKFEDLTPGKKYKIQILTVSGGLFSKEAQTEGRTVPAAVTDLRITENSTRHLSFRWTASEGELSWYNIFLYNPDGNLQERAQVDPLVQSFSFQNLLQGRMYKMVIVTHSGELSNESFIFGRTVPASVSHLRGSNRNTTDSLWFNWSPASGDFDFYELILYNPNGTKKENWKDKDLTEWRFQGLVPGRKYVLWVVTHSGDLSNKVTAESRTAPSPPSLMSFADIANTSLAITWKGPPDWTDYNDFELQWLPRDALTVFNPYNNRKSEGRIVYGLRPGRSYQFNVKTVSGDSWKTYSKPIFGSVRTKPDKIQNLHCRPQNSTAIACSWIPPDSDFDGYSIECRKMDTQEVEFSRKLEKEKSLLNIMMLVPHKRYLVSIKVQSAGMTSEVVEDSTITMIDRPPPPPPHIRVNEKDVLISKSSINFTVNCSWFSDTNGAVKYFTVVVREADGSDELKPEQQHPLPSYLEYRHNASIRVYQTNYFASKCAENPNSNSKSFNIKLGAEMESLGGKCDPTQQKFCDGPLKPHTAYRISIRAFTQLFDEDLKEFTKPLYSDTFFSLPITTESEPLFGAIEGVSAGLFLIGMLVAVVALLICRQKVSHGRERPSARLSIRRDRPLSVHLNLGQKGNRKTSCPIKINQFEGHFMKLQADSNYLLSKEYEELKDVGRNQSCDIALLPENRGKNRYNNILPYDATRVKLSNVDDDPCSDYINASYIPGNNFRREYIVTQGPLPGTKDDFWKMVWEQNVHNIVMVTQCVEKGRVKCDHYWPADQDSLYYGDLILQMLSESVLPEWTIREFKICGEEQLDAHRLIRHFHYTVWPDHGVPETTQSLIQFVRTVRDYINRSPGAGPTVVHCSAGVGRTGTFIALDRILQQLDSKDSVDIYGAVHDLRLHRVHMVQTECQYVYLHQCVRDVLRARKLRSEQENPLFPIYENVNPEYHRDPVYSRH
For the protein B1, the Km was 1340 µM in series [1] and 86 µM in series [2].

Usually Km stands for the substrate concentration at which the rate is half of its maximum.
